Patent US20240042051A1 (Novartis, published 2024)

T1: hCD48EC:mouse-Ig construct #2248 (ENYKQ modified into GSSKQ) (human, UniProt P09326 27-220, limits assumed)
T1 construct: extracellular domain; not shown: mouse IgG1 part of the fusion
T1 sequence (looked up): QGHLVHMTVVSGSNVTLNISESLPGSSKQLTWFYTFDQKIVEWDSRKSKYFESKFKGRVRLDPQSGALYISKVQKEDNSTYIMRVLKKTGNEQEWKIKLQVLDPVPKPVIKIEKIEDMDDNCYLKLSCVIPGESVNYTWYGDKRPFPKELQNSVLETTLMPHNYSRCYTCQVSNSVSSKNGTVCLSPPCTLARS

T2: Human CD48 (recombinant, humanCD48 aa29-220) (human, UniProt P09326 29-220)
T2 construct: SPR analyte in solution; also called analyte human CD48; not shown: C-terminal tag (hFc1P, APP6-Avi or His)
T2 sequence: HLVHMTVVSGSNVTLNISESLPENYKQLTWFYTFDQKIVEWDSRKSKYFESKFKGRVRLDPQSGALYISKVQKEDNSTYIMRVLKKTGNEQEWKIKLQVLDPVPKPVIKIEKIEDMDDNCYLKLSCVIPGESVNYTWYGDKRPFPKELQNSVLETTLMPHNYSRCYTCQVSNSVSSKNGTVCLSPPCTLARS

B1: humanized CD48A (antibody, V domains shown)
VH: QVQLVQSGSELKKPGASVKVSCKASGYTFTDFGMNWVRQAPGQGLEWMGWINTFTGEPSYGNVFKGRFVFSLDTSVSTAYLQISSLKAEDTAVYYCARRHGNGNVFDSWGQGTLVTVSS
VL: EIVLTQSPDFQSVTPKEKVTITCRASQSIGSNIHWYQQKPDQSPKLLIKYTSESISGVPSRFSGSGSGTDFTLTINSLEAEDAATYYCQQSNSWPLTFGGGTKVEIKR
notes: Murine CD48A is clone MEM-102; also called control antibody CD48A
B2: NY938 (antibody, human IgG1, kappa, V domains shown)
VH: QVQLVQSGAEVKKPGASVKVSCKASGYTFTEYTMHWVRQAPGQGLEWMGGINPDTGDTSYNQKFTGRATLTVDKSTSTAYMELSSLRSEDTAVYYCARAQFWTTPRFAYWGQGTLVTVSS
VL: DIQMTQSPSSLSASVGDRVTITCKASQDVGTAVAWYQQKPGKVPKLLIYWASTRHTGVPSRFSGSGSGTDFTLTISSLQPEDVATYYCQQYSTYPITFGQGTKLEIKR
notes: also called anti-CD48 antibody NY938; NY938 IgG
B3: NY920 (antibody, human IgG1, kappa, V domains shown)
VH: EVQLLESGGGLVQPGGSLRLSCAASGFTFSSFAMSWVRQAPGKGLEWVSAISGFGGSTYYADSVKGRFTISRDNSKNTLYLQMNSLRAEDTAVYYCARQFWEDQPFYFDYWGQGTLVTVSS
VL: not shown
notes: also called anti-CD48 antibody NY920; candidate antibody NY920

Columns and labels:
[1] = target: T1, hCD48EC:mouse-Ig construct #2248 (ENYKQ …); test: ELISA, HEK293T culture supernatant (1:10) with the CD48-mouse Ig construct, antibody at 25, 250 and 500 ng/mL, detection goat anti-mouse IgG (H+L) HRP, Mean OD450-570
Source text: Non-mutated CD48-mouse IgG fusion peptide served as positive control and non-transfected cell supernatant as negative control.

[2] = target: T2, Human CD48 (recombinant, humanCD48 …); test: SPR Biacore T200, antibody captured on protein A chip, CD48 as analyte, 25 °C, 1:1 model
Protocol: The anti-CD48 antibodies were diluted at 5 μg/ml and injected on flow cells 2 and 4 for 20 sec at 10 μl/min. Capture level for all antibodies was 370-440 RU. Flow cells 1 and 3 were left blank (no antibody captured) and used as a reference surface. Human and cynomolgus CD48 served as analytes in solution. […] After each cycle of antibody capture and analyte injection, the chip surface was regenerated with 10 mM Glycine-HCl pH 1.5 (Cytiva, ordering #BR100354) for 2×30 s at a flow rate of 50 μl/min. Three runs with duplicate measurements and buffer blank injections were performed. Measurements were executed at 25° C. and data collected at a rate of 10 Hz.
[…] The raw data were double referenced, i.e. the response of the measuring flow cells was corrected for the response of the reference flow cells (no antibody captured), and in a second step the response of a blank injection (buffer) was subtracted. Finally, the sensorgrams were fitted by applying a 1:1 interaction model with a constant fit of RI (0) and a global fit for Rₘₐₓ. Kinetic rate constants (kₐ, kd) and equilibrium dissociation constants (KD) were calculated. Data were processed separately for each run. The generated values were used to calculate average values and standard deviations of the respective equilibrium dissociation constants and the kinetic rate constants.

binding result [1] | Kd [2] | koff [2] | kon [2] | Binder
no binding (tested: 500 ng/mL) | – | – | – | B1
– | 0.5 nM | 0.00013 s⁻¹ | 250000 M⁻¹ s⁻¹ | B2
– | 10 nM | 0.00074 s⁻¹ | 72000 M⁻¹ s⁻¹ | B3
